Biological target: T1, human CD40 (Homo sapiens, UniProt P25942)
T1 construct: CD40 full-length cDNA was cloned by PCR; expressed in transfected cells
Test: P38 kinase assay in HEK293T-CD40 cells
Format: cell-based
Settings: for phosphorylated p38 in HEK293T-CD40 cells: 100 nM, 20 min at 37° C., ADP and peptide C
Procedure: P38 Kinase Assay. Twenty-four h prior to P38 kinase assays HEK293T-CD40 and HEK293T-MCAT cells were seeded into a 24-well plate coated with collagen and incubated with 100 nM CD40L (Alexis), HSP70, N70-domain, C70-domain, or DnaK for 20 min at 37° C. DnaK, Hsp70, N70 and C70 were preincubated with either 2 mM ADP and 30 μM peptide C or 40 μM AMPPNP (Sigma). Upon stimulation cells were washed twice with ice-cold PBS, and lysed in SDS-sample buffer. Equal amounts of protein were analyzed by immunoblotting with antibodies directed against phosphorylated P38 (Promega), and with a monoclonal anti-tubulin antibody (J. Wehland, Braunschweig, Germany).
Binding of Hsp70-peptide complex to CD40 results in intracellular signaling and peptide uptake. Binding of CD40 ligand to CD40 induces signal transduction via phosphorylation of p38, a component of the signal cascade between activated CD40 and NF-kappaB, which eventually results in the release of TNF-alpha and subsequent secretion of interferon-gamma (Pullen et al., 1999). Binding of the C-terminal domain of DnaK to CD40 was reported to have a similar effect (Wang et al., 2001, idem). We therefore investigated whether binding of human Hsp70-peptide complex to CD40 also stimulates this signaling pathway. These experiments were carried out in HEK293T cells stably transfected with human CD40 cDNA. After incubation with either Hsp70-peptide complex, recombinant Hsp70 domains, or DnaK, in the presence of ADP or the non-hydrolysable ATP analogue AMPPNP, cells were lysed, and lysates analyzed by immunoblotting with an antibody directed against active (i.e., phosphorylated) p38.
Details for FIG. 6. Binding of Hsp70 complex to CD40-expressing HEK293T cells induces signaling via p38 and causes peptide uptake. […] Thereafter cells were washed, solubilized in SDS-sample buffer, and analyzed by immunoblotting with antibodies directed against phosphorylated (active) p38. […] Thereafter cells were washed, incubated for 15 min at 37° C., and processed for fluorescence microscopy. […]

T1 sequence (P25942 21-277): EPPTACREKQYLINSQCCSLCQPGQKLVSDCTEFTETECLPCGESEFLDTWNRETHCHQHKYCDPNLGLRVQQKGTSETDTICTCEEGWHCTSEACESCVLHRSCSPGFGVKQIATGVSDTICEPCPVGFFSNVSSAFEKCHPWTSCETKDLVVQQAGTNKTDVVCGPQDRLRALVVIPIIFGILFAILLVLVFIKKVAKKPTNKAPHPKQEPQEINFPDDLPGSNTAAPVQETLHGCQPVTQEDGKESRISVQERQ

N70: Recombinant N-terminal ATPase domain of human Hsp70, residues 5-381 (SEQ ID NO: 1)
phosphorylated p38 in HEK293T-CD40 cells: caused an increase in phosphorylated p38 to an extent comparable to that observed with DnaK

Hsp70: Recombinant human heat shock protein 70, expressed and purified as His-tagged protein
phosphorylated p38 in HEK293T-CD40 cells: caused an increase in phosphorylated p38 to an extent comparable to that observed with DnaK | activation of p38 by Hsp70, nucleotide dependence (ADP versus AMPPNP, compared with same molar concentration of CD40 ligand): significant, and depended on the presence of ADP
